Laboratory results from PMC1140373 (Nucleic Acids Research, 2005).

T1: Human TFIIEα, wild type, N-terminal FLAG tag (human, UniProt P29083 1-439)
T1 sequence (looked up): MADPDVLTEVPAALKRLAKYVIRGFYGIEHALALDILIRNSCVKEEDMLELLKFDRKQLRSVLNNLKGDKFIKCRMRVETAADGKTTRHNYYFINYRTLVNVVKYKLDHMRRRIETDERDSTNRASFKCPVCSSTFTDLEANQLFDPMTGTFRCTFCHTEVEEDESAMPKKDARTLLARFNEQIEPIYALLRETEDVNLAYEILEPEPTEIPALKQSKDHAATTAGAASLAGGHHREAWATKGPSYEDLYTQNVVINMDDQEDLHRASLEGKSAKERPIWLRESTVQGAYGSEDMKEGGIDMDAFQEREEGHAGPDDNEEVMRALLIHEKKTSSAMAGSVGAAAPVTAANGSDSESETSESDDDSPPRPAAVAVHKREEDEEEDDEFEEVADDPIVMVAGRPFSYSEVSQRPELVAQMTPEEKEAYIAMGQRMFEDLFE

T2: FLAG-tagged wild type TFIIEβ (human, UniProt P29084 1-291)
T2 sequence (looked up): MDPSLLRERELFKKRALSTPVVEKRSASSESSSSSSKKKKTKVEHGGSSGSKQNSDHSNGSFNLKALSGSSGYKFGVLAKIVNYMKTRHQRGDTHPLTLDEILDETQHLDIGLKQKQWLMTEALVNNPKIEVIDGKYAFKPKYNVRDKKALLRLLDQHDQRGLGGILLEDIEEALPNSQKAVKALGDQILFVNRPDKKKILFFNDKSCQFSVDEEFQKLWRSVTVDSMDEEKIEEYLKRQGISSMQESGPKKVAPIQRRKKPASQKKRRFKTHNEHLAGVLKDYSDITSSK


Tests used:
[1] = target: T3, Glutathione S-transferase (GST)-tagged human XPB (human, UniProt P19447 1-782); assay: cell-based or functional assay
T3 sequence (P19447 whole entry): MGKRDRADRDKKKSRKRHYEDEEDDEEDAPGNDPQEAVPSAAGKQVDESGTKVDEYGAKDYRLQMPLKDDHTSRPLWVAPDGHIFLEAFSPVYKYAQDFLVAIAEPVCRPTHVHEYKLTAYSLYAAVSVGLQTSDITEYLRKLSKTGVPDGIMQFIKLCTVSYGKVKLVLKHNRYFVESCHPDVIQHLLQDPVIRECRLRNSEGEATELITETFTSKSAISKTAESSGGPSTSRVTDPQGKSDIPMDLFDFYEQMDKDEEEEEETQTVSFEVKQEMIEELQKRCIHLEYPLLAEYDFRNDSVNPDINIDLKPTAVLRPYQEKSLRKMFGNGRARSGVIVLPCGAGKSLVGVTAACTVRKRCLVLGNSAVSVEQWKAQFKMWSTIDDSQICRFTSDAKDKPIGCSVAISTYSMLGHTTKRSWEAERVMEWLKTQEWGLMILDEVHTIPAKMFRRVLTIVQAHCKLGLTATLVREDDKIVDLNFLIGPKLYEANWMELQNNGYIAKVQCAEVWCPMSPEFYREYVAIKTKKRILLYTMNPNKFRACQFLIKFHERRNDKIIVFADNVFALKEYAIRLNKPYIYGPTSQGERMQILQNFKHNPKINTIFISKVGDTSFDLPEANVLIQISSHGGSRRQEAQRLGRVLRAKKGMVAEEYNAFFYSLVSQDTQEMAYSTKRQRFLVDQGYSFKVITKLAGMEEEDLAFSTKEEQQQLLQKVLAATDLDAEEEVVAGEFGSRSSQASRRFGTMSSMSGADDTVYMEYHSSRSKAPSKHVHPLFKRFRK

[2] = target: the molecule itself; assay: co-IP
[3] = target: T1, Human TFIIEα, wild type, N-terminal …; assay: pull-down
[4] = target: T2, FLAG-tagged wild type TFIIEβ; assay: co-IP
[5] = target: T1, Human TFIIEα, wild type, N-terminal …; assay: co-IP
[6] = target: T3, Glutathione S-transferase (GST)-tagged …; assay: pull-down

Row | Binder | stimulation of XPB helicase activity, 2 μg of XPB and 1.2 μg of wild-type TFIIEβ [1] [fold] | binding result [2] | binding result [3] | binding result [4] | binding result [5] | binding result [6]
1 | Human TFIIEβ, wild type, His6 tagged (natural protein, UniProt P29084 1-291, looked up) MDPSLLRERELFKKRALSTPVVEKRSASSESSSSSSKKKKTKVEHGGSSGSKQNSDHSNGSFNLKALSGSSGYKFGVLAKIVNYMKTRHQRGDTHPLTLDEILDETQHLDIGLKQKQWLMTEALVNNPKIEVIDGKYAFKPKYNVRDKKALLRLLDQHDQRGLGGILLEDIEEALPNSQKAVKALGDQILFVNRPDKKKILFFNDKSCQFSVDEEFQKLWRSVTVDSMDEEKIEEYLKRQGISSMQESGPKKVAPIQRRKKPASQKKRRFKTHNEHLAGVLKDYSDITSSK | 3 | binds | binds |  |  | 
2 | Human TFIIEβ I171S, His6 tagged (natural protein, UniProt P29084 1-291, looked up) MDPSLLRERELFKKRALSTPVVEKRSASSESSSSSSKKKKTKVEHGGSSGSKQNSDHSNGSFNLKALSGSSGYKFGVLAKIVNYMKTRHQRGDTHPLTLDEILDETQHLDIGLKQKQWLMTEALVNNPKIEVIDGKYAFKPKYNVRDKKALLRLLDQHDQRGLGGILLEDSEEALPNSQKAVKALGDQILFVNRPDKKKILFFNDKSCQFSVDEEFQKLWRSVTVDSMDEEKIEEYLKRQGISSMQESGPKKVAPIQRRKKPASQKKRRFKTHNEHLAGVLKDYSDITSSK |  |  |  | binds | binds | binds
3 | Human TFIIEβ I189S, His6 tagged (natural protein, UniProt P29084 1-291, looked up) MDPSLLRERELFKKRALSTPVVEKRSASSESSSSSSKKKKTKVEHGGSSGSKQNSDHSNGSFNLKALSGSSGYKFGVLAKIVNYMKTRHQRGDTHPLTLDEILDETQHLDIGLKQKQWLMTEALVNNPKIEVIDGKYAFKPKYNVRDKKALLRLLDQHDQRGLGGILLEDIEEALPNSQKAVKALGDQSLFVNRPDKKKILFFNDKSCQFSVDEEFQKLWRSVTVDSMDEEKIEEYLKRQGISSMQESGPKKVAPIQRRKKPASQKKRRFKTHNEHLAGVLKDYSDITSSK |  |  |  | binds | binds | binds
